Reference: patent publication US20250154519

Legend:
[1] = tested on: AceMYBS1 + AceGBF3 (Actinidia eriantha); assay: cell_activity; settings: dual-luciferase, co-expression
[2] = tested on: AceMYBS1 (Actinidia eriantha); assay: cell_activity; settings: dual-luciferase, tobacco leaves

## AceGGP3 promoter (2.6 kb, P2660)
[1]
  activity: 6.67 fold
[2]
  activity: 3.74 fold
